B1: IPO7 (protein, UniProt O95373 1-1038, looked up)
Importin-7: MDPNTIIEALRGTMDPALREAAERQLNEAHKSLNFVSTLLQITMSEQLDLPVRQAGVIYLKNMITQYWPDRETAPGDISPYTIPEEDRHCIRENIVEAIIHSPELIRVQLTTCIHHIIKHDYPSRWTAIVDKIGFYLQSDNSACWLGILLCLYQLVKNYEYKKPEERSPLVAAMQHFLPVLKDRFIQLLSDQSDQSVLIQKQIFKIFYALVQYTLPLELINQQNLTEWIEILKTVVNRDVPNETLQVEEDDRPELPWWKCKKWALHILARLFERYGSPGNVSKEYNEFAEVFLKAFAVGVQQVLLKVLYQYKEKQYMAPRVLQQTLNYINQGVSHALTWKNLKPHIQGIIQDVIFPLMCYTDADEELWQEDPYEYIRMKFDVFEDFISPTTAAQTLLFTACSKRKEVLQKTMGFCYQILTEPNADPRKKDGALHMIGSLAEILLKKKIYKDQMEYMLQNHVFPLFSSELGYMRARACWVLHYFCEVKFKSDQNLQTALELTRRCLIDDREMPVKVEAAIALQVLISNQEKAKEYITPFIRPVMQALLHIIRETENDDLTNVIQKMICEYSEEVTPIAVEMTQHLAMTFNQVIQTGPDEEGSDDKAVTAMGILNTIDTLLSVVEDHKEITQQLEGICLQVIGTVLQQHVLEFYEEIFSLAHSLTCQQVSPQMWQLLPLVFEVFQQDGFDYFTDMMPLLHNYVTVDTDTLLSDTKYLEMIYSMCKKVLTGVAGEDAECHAAKLLEVIILQCKGRGIDQCIPLFVEAALERLTREVKTSELRTMCLQVAIAALYYNPHLLLNTLENLRFPNNVEPVTNHFITQWLNDVDCFLGLHDRKMCVLGLCALIDMEQIPQVLNQVSGQILPAFILLFNGLKRAYACHAEHENDSDDDDEAEDDDETEELGSDEDDIDEDGQEYLEILAKQAGEDGDDEDWEEDDAEETALEGYSTIIDDEDNPVDEYQIFKAIFQTIQNRNPVWYQALTHGLNEEQRKQLQDIATLADQRRAAHESKMIEKHGGYKFSAPVVPSSFNFGGPAPGMN
B2: RRP15 (protein, UniProt Q9Y3B9 2-282, looked up)
RRP15-like protein: AAAAPDSRVSEEENLKKTPKKKMKMVTGAVASVLEDEATDTSDSEGSCGSEKDHFYSDDDAIEADSEGDAEPCDKENENDGESSVGTNMGWADAMAKVLNKKTPESKPTILVKNKKLEKEKEKLKQERLEKIKQRDKRLEWEMMCRVKPDVVQDKETERNLQRIATRGVVQLFNAVQKHQKNVDEKVKEAGSSMRKRAKLISTVSKKDFISVLRGMDGSTNETASSRKKPKAKQTEVKSEEGPGWTILRDDFMMGASMKDWDKESDGPDDSRPESASDSDT
B3: LAMB3 (protein, UniProt Q13751 18-1172, looked up)
Laminin subunit beta-3: QQACSRGACYPPVGDLLVGRTRFLRASSTCGLTKPETYCTQYGEWQMKCCKCDSRQPHNYYSHRVENVASSSGPMRWWQSQNDVNPVSLQLDLDRRFQLQEVMMEFQGPMPAGMLIERSSDFGKTWRVYQYLAADCTSTFPRVRQGRPQSWQDVRCQSLPQRPNARLNGGKVQLNLMDLVSGIPATQSQKIQEVGEITNLRVNFTRLAPVPQRGYHPPSAYYAVSQLRLQGSCFCHGHADRCAPKPGASAGPSTAVQVHDVCVCQHNTAGPNCERCAPFYNNRPWRPAEGQDAHECQRCDCNGHSETCHFDPAVFAASQGAYGGVCDNCRDHTEGKNCERCQLHYFRNRRPGASIQETCISCECDPDGAVPGAPCDPVTGQCVCKEHVQGERCDLCKPGFTGLTYANPQGCHRCDCNILGSRRDMPCDEESGRCLCLPNVVGPKCDQCAPYHWKLASGQGCEPCACDPHNSLSPQCNQFTGQCPCREGFGGLMCSAAAIRQCPDRTYGDVATGCRACDCDFRGTEGPGCDKASGRCLCRPGLTGPRCDQCQRGYCNRYPVCVACHPCFQTYDADLREQALRFGRLRNATASLWSGPGLEDRGLASRILDAKSKIEQIRAVLSSPAVTEQEVAQVASAILSLRRTLQGLQLDLPLEEETLSLPRDLESLDRSFNGLLTMYQRKREQFEKISSADPSGAFRMLSTAYEQSAQAAQQVSDSSRLLDQLRDSRREAERLVRQAGGGGGTGSPKLVALRLEMSSLPDLTPTFNKLCGNSRQMACTPISCPGELCPQDNGTACGSRCRGVLPRAGGAFLMAGQVAEQLRGFNAQLQRTRQMIRAAEESASQIQSSAQRLETQVSASRSQMEEDVRRTRLLIQQVRDFLTDPDTDAATIQEVSEAVLALWLPTDSATVLQKMNEIQAIAARLPNVDLVLSQTKQDIARARRLQAEAEEARSRAHAVEGQVEDVVGNLRQGTVALQEAQDTMQGTSRSLRLIQDRVAEVQQVLRPAEKLVTSMTKQLGDFWTRMEELRHQARQQGAEAVQAQQLAEGASEQALSAQEGFERIKQKYAELKDRLGQSSMLGEQGARIQSVKTEAEELFGETMEMMDRMKDMELELLRGSQAIMLRSADLTGLEKRVEQIRDHINGRVLYYATCK
B4: SFPQ (protein, UniProt P23246 1-707, looked up)
Splicing factor, proline- and …: MSRDRFRSRGGGGGGFHRRGGGGGRGGLHDFRSPPPGMGLNQNRGPMGPGPGQSGPKPPIPPPPPHQQQQQPPPQQPPPQQPPPHQPPPHPQPHQQQQPPPPPQDSSKPVVAQGPGPAPGVGSAPPASSSAPPATPPTSGAPPGSGPGPTPTPPPAVTSAPPGAPPPTPPSSGVPTTPPQAGGPPPPPAAVPGPGPGPKQGPGPGGPKGGKMPGGPKPGGGPGLSTPGGHPKPPHRGGGEPRGGRQHHPPYHQQHHQGPPPGGPGGRSEEKISDSEGFKANLSLLRRPGEKTYTQRCRLFVGNLPADITEDEFKRLFAKYGEPGEVFINKGKGFGFIKLESRALAEIAKAELDDTPMRGRQLRVRFATHAAALSVRNLSPYVSNELLEEAFSQFGPIERAVVIVDDRGRSTGKGIVEFASKPAARKAFERCSEGVFLLTTTPRPVIVEPLEQLDDEDGLPEKLAQKNPMYQKERETPPRFAQHGTFEYEYSQRWKSLDEMEKQQREQVEKNMKDAKDKLESEMEDAYHEHQANLLRQDLMRRQEELRRMEELHNQEMQKRKEMQLRQEEERRRREEEMMIRQREMEEQMRRQREESYSRMGYMDPRERDMRMGGGGAMNMGDPYGSGGQKFPPLGGGGGIGYEANPGVPPATMSGSMMGSDMRTERFGQGGAGPVGGQGPRGMGPGTPAGYGRGREEYEGPNKKPRF
B5: PHGDH (protein, UniProt O43175 2-533, looked up)
D-3-phosphoglycerate …: AFANLRKVLISDSLDPCCRKILQDGGLQVVEKQNLSKEELIAELQDCEGLIVRSATKVTADVINAAEKLQVVGRAGTGVDNVDLEAATRKGILVMNTPNGNSLSAAELTCGMIMCLARQIPQATASMKDGKWERKKFMGTELNGKTLGILGLGRIGREVATRMQSFGMKTIGYDPIISPEVSASFGVQQLPLEEIWPLCDFITVHTPLLPSTTGLLNDNTFAQCKKGVRVVNCARGGIVDEGALLRALQSGQCAGAALDVFTEEPPRDRALVDHENVISCPHLGASTKEAQSRCGEEIAVQFVDMVKGKSLTGVVNAQALTSAFSPHTKPWIGLAEALGTLMRAWAGSPKGTIQVITQGTSLKNAGNCLSPAVIVGLLKEASKQADVNLVNAKLLVKEAGLNVTTSHSPAAPGEQGFGECLLAVALAGAPYQAVGLVQGTTPVLQGLNGAVFRPEVPLRRDLPLLLFRTQTSDPAMLPTMIGLLAEAGVRLLSYQTSLVSDGETWHVMGISSLLPSLEAWKQHVTEAFQFHF
B6: IGHMBP2 (protein, UniProt P38935 2-993, looked up)
DNA-binding protein SMUBP-2: ASAAVESFVTKQLDLLELERDAEVEERRSWQENISLKELQSRGVCLLKLQVSSQRTGLYGRLLVTFEPRRYGSAAALPSNSFTSGDIVGLYDAANEGSQLATGILTRVTQKSVTVAFDESHDFQLSLDRENSYRLLKLANDVTYRRLKKALIALKKYHSGPASSLIEVLFGRSAPSPASEIHPLTFFNTCLDTSQKEAVLFALSQKELAIIHGPPGTGKTTTVVEIILQAVKQGLKVLCCAPSNIAVDNLVERLALCKQRILRLGHPARLLESIQQHSLDAVLARSDSAQIVADIRKDIDQVFVKNKKTQDKREKSNFRNEIKLLRKELKEREEAAMLESLTSANVVLATNTGASADGPLKLLPESYFDVVVIDECAQALEASCWIPLLKARKCILAGDHKQLPPTTVSHKAALAGLSLSLMERLAEEYGARVVRTLTVQYRMHQAIMRWASDTMYLGQLTAHSSVARHLLRDLPGVAATEETGVPLLLVDTAGCGLFELEEEDEQSKGNPGEVRLVSLHIQALVDAGVPARDIAVVSPYNLQVDLLRQSLVHRHPELEIKSVDGFQGREKEAVILSFVRSNRKGEVGFLAEDRRINVAVTRARRHVAVICDSRTVNNHAFLKTLVEYFTQHGEVRTAFEYLDDIVPENYSHENSQGSSHAATKPQGPATSTRTGSQRQEGGQEAAAPARQGRKKPAGKSLASEAPSQPSLNGGSPEGVESQDGVDHFRAMIVEFMASKKMQLEFPPSLNSHDRLRVHQIAEEHGLRHDSSGEGKRRFITVSKRAPRPRAALGPPAGTGGPAPLQPVPPTPAQTEQPPREQRGPDQPDLRTLHLERLQRVRSAQGQPASKEQQASGQQKLPEKKKKKAKGHPATDLPTEEDFEALVSAAVKADNTCGFAKCTAGVTTLGQFCQLCSRRYCLSHHLPEIHGCGERARAHARQRISREGVLYAGSGTKNGSLDPAKRAQLQRRLDKKLSELSNQRTSRRKERGT
B7: TCF25 (protein, UniProt Q9BQ70 1-676, looked up)
Ribosome quality control …: MSRRALRRLRGEQRGQEPLGPGALHFDLRDDDDAEEEGPKRELGVRRPGGAGKEGVRVNNRFELINIDDLEDDPVVNGERSGCALTDAVAPGNKGRGQRGNTESKTDGDDTETVPSEQSHASGKLRKKKKKQKNKKSSTGEASENGLEDIDRILERIEDSTGLNRPGPAPLSSRKHVLYVEHRHLNPDTELKRYFGARAILGEQRPRQRQRVYPKCTWLTTPKSTWPRYSKPGLSMRLLESKKGLSFFAFEHSEEYQQAQHKFLVAVESMEPNNIVVLLQTSPYHVDSLLQLSDACRFQEDQEMARDLVERALYSMECAFHPLFSLTSGACRLDYRRPENRSFYLALYKQMSFLEKRGCPRTALEYCKLILSLEPDEDPLCMLLLIDHLALRARNYEYLIRLFQEWEAHRNLSQLPNFAFSVPLAYFLLSQQTDLPECEQSSARQKASLLIQQALTMFPGVLLPLLESCSVRPDASVSSHRFFGPNAEISQPPALSQLVNLYLGRSHFLWKEPATMSWLEENVHEVLQAVDAGDPAVEACENRRKVLYQRAPRNIHRHVILSEIKEAVAALPPDVTTQSVMGFDPLPPSDTIYSYVRPERLSPISHGNTIALFFRSLLPNYTMEGERPEEGVAGGLNRNQGLNRLMLAVRDMMANFHLNDLEAPHEDDAEGEGEWD

Test system: GFP-14-3-3β
Experiment: GFP-14-3-3β co-IP with LC-MS/MS, untreated GFP-14-3-3β versus GFP control (14-3-3 interactome)
Format: binding, human
Details: GFP-14-3-3β co-IP LC-MS/MS; untreated vs GFP; student's t-test; label-free quantification, 3 replicates each

Molecule | Difference (log2), untreated vs GFP [log2]
B1 | 0.3162
B2 | 0.6496
B3 | 0.9719
B4 | 0.3721
B5 | -0.2834
B6 | 0.7737

Same assay, conditions: log2 difference; pairwise comparison untreated vs GFP, label-free quantification, 3 replicates each

Molecule | Difference (log2), untreated vs GFP
B7 | -0.2721

Test system: GFP-14-3-3β and its binding proteins
Experiment: GFP-14-3-3β co-IP with LC-MS/MS label-free quantification, untreated versus PP1c-treated
Design: species or system human
Details: GFP-14-3-3β co-IP LC-MS/MS; PP1 vs untreated; student's t-test; label-free quantification, 3 replicates each

Molecule | Difference (log2), PP1 vs untreated [log2]
B1 | -0.3489
B2 | -0.3533
B3 | -0.3598
B4 | -0.3668
B5 | -0.3751
B6 | -0.3964

Same assay, conditions: log2 difference; pairwise comparison PP1 vs untreated, label-free quantification, 3 replicates each

Molecule | Difference (log2), PP1 vs untreated
B7 | 1.673

Reference: paper PMC7367873, “Dissecting the sequence determinants for dephosphorylation by the catalytic subunits of phosphatases PP1 and PP2A” (Nature Communications, 2020)
